Source: paper PMC5014086 (2016)
Positions count from the first letter of the chain named. Names and notes keep the numbering of the source. Where two headings read alike, the source gives them in different places. Each block holds one binder with its values, some of them ahead of it.

Key:
Assay in all cases: SPR
LRP6_(PE1PE2) fragment = target: T1, LRP6_(PE1PE2) fragment; details: chain shown with the change; 25 µM LRP6PE1PE2 (highest concentration of the titration); parent: est. 100; read off a plot
T1 chain: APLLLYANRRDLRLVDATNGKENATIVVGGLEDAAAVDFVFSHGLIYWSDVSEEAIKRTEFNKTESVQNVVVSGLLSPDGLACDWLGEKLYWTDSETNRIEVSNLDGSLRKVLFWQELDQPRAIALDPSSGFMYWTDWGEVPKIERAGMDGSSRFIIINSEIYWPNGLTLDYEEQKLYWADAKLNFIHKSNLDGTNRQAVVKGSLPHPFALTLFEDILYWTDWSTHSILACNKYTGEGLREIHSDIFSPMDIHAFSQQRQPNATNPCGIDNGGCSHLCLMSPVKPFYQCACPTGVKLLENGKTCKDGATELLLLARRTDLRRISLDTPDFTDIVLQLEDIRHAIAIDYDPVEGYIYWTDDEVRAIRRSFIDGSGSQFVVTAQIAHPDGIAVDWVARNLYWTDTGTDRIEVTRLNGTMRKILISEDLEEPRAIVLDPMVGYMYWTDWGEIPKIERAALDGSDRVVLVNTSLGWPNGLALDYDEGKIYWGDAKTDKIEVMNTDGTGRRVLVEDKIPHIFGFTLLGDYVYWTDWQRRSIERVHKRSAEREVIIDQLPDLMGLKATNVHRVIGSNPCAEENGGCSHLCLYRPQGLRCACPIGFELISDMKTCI

[1] = target: T2, wild-type KRM1ECD as immobilised for SPR (human, UniProt Q96MU8 21-392)
T2 chain: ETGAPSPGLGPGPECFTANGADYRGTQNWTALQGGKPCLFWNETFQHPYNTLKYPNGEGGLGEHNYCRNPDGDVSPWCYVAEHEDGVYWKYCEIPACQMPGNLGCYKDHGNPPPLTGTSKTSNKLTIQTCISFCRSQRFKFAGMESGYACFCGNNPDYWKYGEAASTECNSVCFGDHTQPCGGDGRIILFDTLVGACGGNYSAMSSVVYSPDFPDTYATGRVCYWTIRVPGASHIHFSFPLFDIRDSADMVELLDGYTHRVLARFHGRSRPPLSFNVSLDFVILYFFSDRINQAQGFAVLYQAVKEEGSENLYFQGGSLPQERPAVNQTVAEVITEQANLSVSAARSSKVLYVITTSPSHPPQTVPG

[2] = target: T2, wild-type KRM1ECD as immobilised for SPR
[3] = target: T3, GlycoCUB mutant of KRM1ECD (309NQA311→NQS, N-glycan at N309) (human, UniProt Q96MU8 21-392, 309NQA311→NQS, additional N-glycan at N309)
T3 sequence: T2 chain with A294S

B2: SUMO-DKK1_(Linker-CRD2), SUMO fusion as SPR analyte (domain or fragment)
chain: SDQNHFRGEIEETITESFGNDHSTLDGYSRRTTLSSKMYHTKGQEGSVCLRSSDCASGLCCARHFWSKICKPVLKEGQVCTKHRRKGSHGLEIFQRCYCGEGLSCRIQKDHHQASNSSRLHTCQRH
Kd [1]: 400 nM

B3: LRP6_(PE1PE2) fragment (domain or fragment)
chain: T1 chain
Kd [2]: 18900 nM

More lines, now with the values ahead:

response (response units) (LRP6_(PE1PE2) fragment): -20
B1: wild-type KRM1ECD as immobilised for SPR, Q96MU8 A311S (protein)
chain: T2 chain with A294S

Kd [3]: 1300 nM
Kd [1]: 1200 nM
B4: full-length DKK1 (ligand)
chain: TLNSVLNSNAIKNLPPPLGGAAGHPGSAVSAAPGILYPGGNKYQTIDNYQPYPCAEDEECGTDEYCASPTRGGDAGVQICLACRKRRKRCMRHAMCCPGNYCKNGICVSSDQNHFRGEIEETITESFGNDHSTLDGYSRRTTLSSKMYHTKGQEGSVCLRSSDCASGLCCARHFWSKICKPVLKEGQVCTKHRRKGSHGLEIFQRCYCGEGLSCRIQKDHHQASNSSRLHTCQRH
